For data set [1], the system named is T1, SaMhqR Y92A Y92A (Staphylococcus aureus COL), ORF:0a4449b0.
T1 sequence: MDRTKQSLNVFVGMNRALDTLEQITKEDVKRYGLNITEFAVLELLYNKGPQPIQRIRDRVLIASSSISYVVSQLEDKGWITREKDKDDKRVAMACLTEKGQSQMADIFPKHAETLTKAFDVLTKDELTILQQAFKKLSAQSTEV
The data set is described as follows: EMSA. The conditions noted are these: EMSA: 15 ng probe, 0.01-1.0 uM protein, 60 min; for MHQ tests protein diluted to 0.6 uM in 10 mM Tris-HCl pH 7.5 and treated with 0.5-100 mM MHQ for 30 min at …. Background: A gel shift assay detects complexes by their altered migration in electrophoresis.

In data set [2] the test system is T2, SaMhqR Y69A Y69A (Staphylococcus aureus COL), ORF:0a4449b0.
T2 sequence: T1 sequence with Y69A, A92Y
The data set is described as follows: EMSA. The conditions noted are these: EMSA: 15 ng probe, 0.01-1.0 uM protein, 60 min; for MHQ tests protein diluted to 0.6 uM in 10 mM Tris-HCl pH 7.5 and treated with 0.5-100 mM MHQ for 30 min at ….

Data set [3] deals with T3, SaMhqR H111A H111A (Staphylococcus aureus COL), ORF:0a4449b0.
T3 sequence: T1 sequence with A92Y, H111A
The data set is described as follows: EMSA. The conditions noted are these: EMSA: 15 ng probe, 0.01-1.0 uM protein, 60 min; for MHQ tests protein diluted to 0.6 uM in 10 mM Tris-HCl pH 7.5 and treated with 0.5-100 mM MHQ for 30 min at ….

Data set [4] relates to T4, SaMhqR S64A S64A (Staphylococcus aureus COL), ORF:0a4449b0.
T4 sequence: T1 sequence with S64A, A92Y
The data set is described as follows: EMSA. The conditions noted are these: EMSA: 15 ng probe, 0.01-1.0 uM protein, 60 min; for MHQ tests protein diluted to 0.6 uM in 10 mM Tris-HCl pH 7.5 and treated with 0.5-100 mM MHQ for 30 min at ….

The test system of data set [5] is T5, SaMhqR V91A V91A (Staphylococcus aureus COL), ORF:0a4449b0.
T5 sequence: T1 sequence with V91A, A92Y
Description: EMSA. The following applies: EMSA: 15 ng probe, 0.01-1.0 uM protein, 60 min; for MHQ tests protein diluted to 0.6 uM in 10 mM Tris-HCl pH 7.5 and treated with 0.5-100 mM MHQ for 30 min at ….

For data set [6], the system named is T6, SaMhqR S65A S65A (Staphylococcus aureus COL), ORF:0a4449b0.
T6 sequence: T1 sequence with S65A, A92Y
Description: EMSA. The conditions noted are these: EMSA: 15 ng probe, 0.01-1.0 uM protein, 60 min; for MHQ tests protein diluted to 0.6 uM in 10 mM Tris-HCl pH 7.5 and treated with 0.5-100 mM MHQ for 30 min at ….

In data set [7] the test system is T7, SaMhqR D88A D88A (Staphylococcus aureus COL), ORF:0a4449b0.
T7 sequence: T1 sequence with D88A, A92Y
Description: EMSA. The following applies: EMSA: 15 ng probe, 0.01-1.0 uM protein, 60 min; for MHQ tests protein diluted to 0.6 uM in 10 mM Tris-HCl pH 7.5 and treated with 0.5-100 mM MHQ for 30 min at ….

The subject of data set [8] is T8, SaMhqR F11A F11A (Staphylococcus aureus COL), ORF:0a4449b0.
T8 sequence: T1 sequence with F11A, A92Y
The data set is described as follows: EMSA. The following applies: EMSA: 15 ng probe, 0.01-1.0 uM protein, 60 min; for MHQ tests protein diluted to 0.6 uM in 10 mM Tris-HCl pH 7.5 and treated with 0.5-100 mM MHQ for 30 min at ….

The test system of data set [9] is T9, SaMhqR E43A E43A (Staphylococcus aureus COL), ORF:0a4449b0.
T9 sequence: T1 sequence with E43A, A92Y
The data set is described as follows: EMSA. The following applies: EMSA: 15 ng probe, 0.01-1.0 uM protein, 60 min; for MHQ tests protein diluted to 0.6 uM in 10 mM Tris-HCl pH 7.5 and treated with 0.5-100 mM MHQ for 30 min at ….

The subject of data set [10] is T10, SaMhqR F39A F39A (Staphylococcus aureus COL), ORF:0a4449b0.
T10 sequence: T1 sequence with F39A, A92Y
Description: EMSA. The following applies: EMSA: 15 ng probe, 0.01-1.0 uM protein, 60 min; for MHQ tests protein diluted to 0.6 uM in 10 mM Tris-HCl pH 7.5 and treated with 0.5-100 mM MHQ for 30 min at ….

The test system of data set [11] is T11, SaMhqR S68A S68A (Staphylococcus aureus COL), ORF:0a4449b0.
T11 sequence: T1 sequence with S68A, A92Y
Description: EMSA. The following applies: EMSA: 15 ng probe, 0.01-1.0 uM protein, 60 min; for MHQ tests protein diluted to 0.6 uM in 10 mM Tris-HCl pH 7.5 and treated with 0.5-100 mM MHQ for 30 min at ….

Data set [12] relates to T12, SaMhqR Q54A Q54A (Staphylococcus aureus COL), ORF:0a4449b0.
T12 sequence: T1 sequence with Q54A, A92Y
Description: EMSA. The following applies: EMSA: 15 ng probe, 0.01-1.0 uM protein, 60 min; for MHQ tests protein diluted to 0.6 uM in 10 mM Tris-HCl pH 7.5 and treated with 0.5-100 mM MHQ for 30 min at ….

Data set [13] relates to T13, SaMhqR R90A R90A (Staphylococcus aureus COL), ORF:0a4449b0.
T13 sequence: T1 sequence with R90A, A92Y
The data set is described as follows: EMSA. The following applies: EMSA: 15 ng probe, 0.01-1.0 uM protein, 60 min; for MHQ tests protein diluted to 0.6 uM in 10 mM Tris-HCl pH 7.5 and treated with 0.5-100 mM MHQ for 30 min at ….

For data set [14], the system named is T14, SaMhqR E38A E38A (Staphylococcus aureus COL), ORF:0a4449b0.
T14 sequence: T1 sequence with E38A, A92Y
Description: EMSA. The following applies: EMSA: 15 ng probe, 0.01-1.0 uM protein, 60 min; for MHQ tests protein diluted to 0.6 uM in 10 mM Tris-HCl pH 7.5 and treated with 0.5-100 mM MHQ for 30 min at ….

Data set [15] relates to T15, SaMhqR WT (Staphylococcus aureus COL), ORF:0a4449b0.
T15 sequence: T1 sequence with A92Y
Description: EMSA. The conditions noted are these: EMSA: 15 ng probe, 0.01-1.0 uM protein, 60 min; for MHQ tests protein diluted to 0.6 uM in 10 mM Tris-HCl pH 7.5 and treated with 0.5-100 mM MHQ for 30 min at ….

Data set [16] has as its system T16, SaMhqR A63E A63E (Staphylococcus aureus COL), ORF:0a4449b0.
T16 sequence: T1 sequence with A63E, A92Y
The data set is described as follows: EMSA. The conditions noted are these: EMSA: 15 ng probe, 0.01-1.0 uM protein, 60 min; for MHQ tests protein diluted to 0.6 uM in 10 mM Tris-HCl pH 7.5 and treated with 0.5-100 mM MHQ for 30 min at ….

In data set [17] the test system is T17, SaMhqR E43A,H111A E43A;H111A (Staphylococcus aureus COL), ORF:0a4449b0.
T17 sequence: T1 sequence with E43A, A92Y, H111A
Description: EMSA. The following applies: EMSA: 15 ng probe, 0.01-1.0 uM protein, 60 min; for MHQ tests protein diluted to 0.6 uM in 10 mM Tris-HCl pH 7.5 and treated with 0.5-100 mM MHQ for 30 min at ….

The test system of data set [18] is T18, SaMhqR K89A K89A (Staphylococcus aureus COL), ORF:0a4449b0.
T18 sequence: T1 sequence with K89A, A92Y
Description: EMSA. The following applies: EMSA: 15 ng probe, 0.01-1.0 uM protein, 60 min; for MHQ tests protein diluted to 0.6 uM in 10 mM Tris-HCl pH 7.5 and treated with 0.5-100 mM MHQ for 30 min at ….

Data set [19] has as its system T19, SaMhqR Q73A Q73A (Staphylococcus aureus COL), ORF:0a4449b0.
T19 sequence: T1 sequence with Q73A, A92Y
The data set is described as follows: EMSA. The conditions noted are these: EMSA: 15 ng probe, 0.01-1.0 uM protein, 60 min; for MHQ tests protein diluted to 0.6 uM in 10 mM Tris-HCl pH 7.5 and treated with 0.5-100 mM MHQ for 30 min at ….

In data set [20] the test system is T20, SaMhqR V70A V70A (Staphylococcus aureus COL), ORF:0a4449b0.
T20 sequence: T1 sequence with V70A, A92Y
The data set is described as follows: EMSA. The conditions noted are these: EMSA: 15 ng probe, 0.01-1.0 uM protein, 60 min; for MHQ tests protein diluted to 0.6 uM in 10 mM Tris-HCl pH 7.5 and treated with 0.5-100 mM MHQ for 30 min at ….

Data set [21] has as its system T21, SaMhqR S66A S66A (Staphylococcus aureus COL), ORF:0a4449b0.
T21 sequence: T1 sequence with S66A, A92Y
Description: EMSA. The conditions noted are these: EMSA: 15 ng probe, 0.01-1.0 uM protein, 60 min; for MHQ tests protein diluted to 0.6 uM in 10 mM Tris-HCl pH 7.5 and treated with 0.5-100 mM MHQ for 30 min at ….

The target in data set [22] is MarR-type repressor MhqR of Staphylococcus aureus (SaMhqR), wild type, C-terminally His-tagged (Staphylococcus aureus (COL)). The data set is described as follows: SEC-MALS; Superdex 200 Increase 10/300, HEPES buffer (20 mM HEPES, 20 mM MgCl2, 200 mM NaCl, 20 mM KCl). On the technique in general: Size exclusion chromatography separates by hydrodynamic size, large species first.

Residue numbers refer to the chain shown, from its start.

As to “ACATATCAACTCCTATCATGATTGATTATAGTATTTCCCTATTCTATTTTAACTTAAACGAAGTCAAAGGTGCATGACAGTCATGTGACGACATTGCCACATCTATGTAGTCGTTTTTATTAAGCACAGTTTGAAATGAAGATGAAAACACGTATCTTGACATTAAATCTATTCAGTTATATAATTTATCTCGAAATCGAAATAAAATAAAAAAGTTGGTGATCATATGGATCGAACG (double strand) [mhqRED promoter probe]”, the binding entry in [1] is reported as “binds more weakly”; in [2], “binds more weakly”; in data set [3], “binds more weakly”; in data set [4], “binds”; in data set [5], “binds more weakly”; in data set [6] it was “binds more weakly”. Also, the binding result is on record as “binds more weakly” in [7]; “binds more weakly” in data set [8]; “binds” in data set [9]; “binds more weakly” in data set [10]; “binds more weakly” in [11]; “binds more weakly” in [12]. Moreover, the binding entry in [13] is on record as “binds more weakly”; in [14], “binds more weakly”; in data set [15], “binds”; in data set [16], “binds more weakly”; in data set [17] it was “no binding”; in data set [18] it was “binds more weakly”. Moreover, the binding result in data set [19], in [20] and in data set [21] was “binds more weakly” throughout.

The substance “MarR-type repressor MhqR of Staphylococcus aureus (SaMhqR), wild type, C-terminally His-tagged (natural protein)” registered a stoichiometry N in data set [22] of 2.

As a reminder, the stoichiometry N is a count of units in the complex or per binding partner.
